Measured values: patent US20230045873A1 (ONCOONE RESEARCH AND DEVELOPMENT, published 2023)

Target: T1, oxMIF (recombinant human MIF immobilized into microwell plates, transforming MIF to oxMIF) (human, UniProt P14174 2-115)
T1 construct: also called immobilized MIF (oxMIF); immobilized oxMIF
Experiment: ELISA on immobilized MIF (oxMIF), protein L-HRP detection, mean of triplicate
Description: Recombinant human MIF (1 μg/ml) diluted in PBS was immobilized into microwell plates (transforming MIF to oxMIF according to Thiele M. et al., 2015, J Immunol 2015; 195:2343-2352). After blocking, the bispecific antibodies were added to the plates at different concentrations. Bound bispecific antibodies were detected using protein L-HRP conjugate. Plates were developed by adding 3 3′5 5′tetramethylbenzidine (TMB) and chromogenic reaction was stopped with […]. OD was measured at 450 nm.
The binding curves of anti-oxMIF/CD3 bispecific antibodies C0061 and C0062 binding towards immobilized MIF (oxMIF) in an ELISA are depicted in FIG. 4. The monospecific anti-oxMIF antibody C0008 was used as positive control for oxMIF binding. EC50 values of the binding curves, which reflect rough KD estimates, were calculated by 4-parameter fit.

T1 sequence (P14174 2-115 limits assumed): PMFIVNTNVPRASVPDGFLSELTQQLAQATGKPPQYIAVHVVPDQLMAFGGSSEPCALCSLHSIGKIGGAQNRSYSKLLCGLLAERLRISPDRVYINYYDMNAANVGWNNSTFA

B1: C0061 (Anti-oxMIF Fab and anti-oxMIF/anti-CD3 BiTE fused to Fc; Fab-BiTE-Fc) (bispecific antibody, human IgG1, kappa)
heavy: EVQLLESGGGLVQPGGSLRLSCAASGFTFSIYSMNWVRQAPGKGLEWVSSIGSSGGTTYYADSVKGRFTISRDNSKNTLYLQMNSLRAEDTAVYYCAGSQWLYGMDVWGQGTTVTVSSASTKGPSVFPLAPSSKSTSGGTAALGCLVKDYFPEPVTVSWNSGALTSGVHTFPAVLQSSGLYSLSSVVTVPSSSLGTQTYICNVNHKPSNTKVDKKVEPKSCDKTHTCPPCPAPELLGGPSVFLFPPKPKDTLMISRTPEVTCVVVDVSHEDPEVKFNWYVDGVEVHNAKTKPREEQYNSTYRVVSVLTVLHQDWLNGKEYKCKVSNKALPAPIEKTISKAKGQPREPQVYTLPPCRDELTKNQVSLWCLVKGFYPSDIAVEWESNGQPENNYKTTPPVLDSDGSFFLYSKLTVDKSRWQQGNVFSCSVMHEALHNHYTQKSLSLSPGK
chain: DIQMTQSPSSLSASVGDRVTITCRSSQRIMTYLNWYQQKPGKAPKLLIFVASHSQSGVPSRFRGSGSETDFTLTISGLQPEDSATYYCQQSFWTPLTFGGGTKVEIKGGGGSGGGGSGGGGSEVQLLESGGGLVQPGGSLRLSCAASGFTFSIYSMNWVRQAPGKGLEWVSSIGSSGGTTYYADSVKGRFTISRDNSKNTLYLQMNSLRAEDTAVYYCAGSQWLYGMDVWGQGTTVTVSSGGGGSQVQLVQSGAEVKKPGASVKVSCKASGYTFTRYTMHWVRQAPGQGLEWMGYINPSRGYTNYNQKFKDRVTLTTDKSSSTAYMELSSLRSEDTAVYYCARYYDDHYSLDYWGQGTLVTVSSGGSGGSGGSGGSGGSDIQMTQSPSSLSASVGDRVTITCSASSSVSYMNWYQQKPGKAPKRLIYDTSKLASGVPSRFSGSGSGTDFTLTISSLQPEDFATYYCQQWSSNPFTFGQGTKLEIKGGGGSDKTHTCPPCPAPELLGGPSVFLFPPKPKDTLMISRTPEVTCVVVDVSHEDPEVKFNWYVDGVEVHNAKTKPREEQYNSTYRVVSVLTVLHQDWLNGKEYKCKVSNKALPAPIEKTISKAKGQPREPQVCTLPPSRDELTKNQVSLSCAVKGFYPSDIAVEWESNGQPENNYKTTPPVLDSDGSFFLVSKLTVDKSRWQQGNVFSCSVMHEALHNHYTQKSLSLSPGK
light: DIQMTQSPSSLSASVGDRVTITCRSSQRIMTYLNWYQQKPGKAPKLLIFVASHSQSGVPSRFRGSGSETDFTLTISGLQPEDSATYYCQQSFWTPLTFGGGTKVEIKRTVAAPSVFIFPPSDEQLKSGTASVVCLLNNFYPREAKVQWKVDNALQSGNSQESVTEQDSKDSTYSLSSTLTLSKADYEKHKVYACEVTHQGLSSPVTKSFNRGEC
notes: Three polypeptides; bivalent for oxMIF, monovalent for CD3
With B1 the EC50 was 0.9 nM.
